Laboratory results: paper PMC6638984 (2019)

Biological target: T1, BS69 coiled-coil MYND domain (BS69_(CC-MYND), amino acids 480-602) (human, UniProt Q15326 480-602)
T1 chain: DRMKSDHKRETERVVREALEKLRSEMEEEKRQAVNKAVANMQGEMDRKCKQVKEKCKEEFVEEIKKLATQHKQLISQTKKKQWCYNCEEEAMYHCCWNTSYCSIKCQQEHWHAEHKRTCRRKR
Experiment: ITC

B1: type 1 EBNA2 polypeptide T1 EBNA2_(381-455) (domain or fragment)
chain: SMPELSPVLGLHQGQGAGDSPTPGPSNAAPVCRNSHTATPNVSPIHEPESHNSPEAPILFPDDWYPPSIDPADLD
Kd: 730 nM
